± gives the standard deviation of the averaged measurements.
These sequences were tested on ATP (assay: switch fluorescence ratio, 500 uM ATP over buffer (Cy3 cluster intensity, sum of 5 cycles each) (fold (ratio)); higher = stronger signal-on switching upon ATP binding; sequences stand for … in TCGTCGGCAGCGTCAGATGTGTATAAGAGACAGTTTTTTTTTTTTTTTTTTTTTTTTT…TC). Conditions: aptamer strand: ATP DNA aptamer (quencher-CACCTGGGGGAGTATTGCGGAGGAAGG + anchor), 100 nM annealed; ATP concentration: 500 uM.
How it was run: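 Five buffer/ATP imaging cycles were run on Cy3-labelled switching-strand clusters on a modified Illumina MiSeq flow-cell, with NaOH stripping and re-annealing between cycles. In each cycle, clusters annealed to 100 nM quencher-labelled ATP aptamer were imaged in selection buffer, then after 15 min with 500 uM ATP at 22 °C. Per cluster, the fluorescence ratio is summed target-cycle over summed buffer-cycle Cy3 intensity, averaged per switch-domain sequence. Only clusters within 100-1000 RFU were kept.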
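Further: ATP exposure 15 min at 22 °C before imaging.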

Point of comparison: ATTTTTTGGA, switch fluorescence ratio 1.01 ± 0.026. Against it:
- GAGGATTCGG — within error, 0.986 ± 0.026
- TTACTATGGC — within error, 0.966 ± 0.032
- CGCTGGTTGT — within error, 0.9855 ± 0.0013
- GTTTTACGCG — within error, 1 ± 0.007
- GGAGGGCATC — lower, 0.972 ± 0.0046
- CAAAGCTTGA — the same, 1.01 ± 0.036
- TGTGGGGTAG — the same, 1.01 ± 0.029
- AATGTTAAAT — within error, 0.979 ± 0.02
- ACTCGTAGCA — higher, 1.19 ± 0.012
- TCGATGGTTT — the same, 1.013 ± 0.01
- GCTCCCAAGG — higher, 3.69 ± 0.46
- TCTAGGAGGG — within error, 0.998 ± 0.016
- GTGAAAACCG — within error, 1.03 ± 0.062
- GGTAGTATGG — within error, 1 ± 0.03
- CATTAGCCAG — within error, 0.99754 ± 0.00029
- TGTTTGTAGG — within error, 0.97 ± 0.043
- TGGGGTTAGA — within error, 0.978 ± 0.029
- TTTAAAACAG — within error, 1.018 ± 0.0079
- ATAGGCTGTT — within error, 0.986 ± 0.038
- CTAGGTGTG — the same, 1.01 ± 0.082
- AGCTTTATGT — within error, 1.02 ± 0.04
- CCGATGGTCT — higher, 1.25 ± 0.072
- TAATGGACAA — within error, 1.04 ± 0.017
- GCGGGATCCG — within error, 1.06 ± 0.083
- TCCACGGGTA — within error, 1.08 ± 0.068
- ATGGGGTTGG — within error, 1 ± 0.049
- ACTATTTTTT — within error, 1 ± 0.029
- CCATTAGGGG — the same, 1.01 ± 0.044
- TATTAATGCT — within error, 1.028 ± 0.0052
- CCTGGTCGGC — within error, 1.02 ± 0.035
- CGGCGTAAAA — within error, 1.13 ± 0.21
- ACGTGCTTTT — within error, 0.999 ± 0.018
- GGGACGCAGG — within error, 1.015 ± 0.008
- ACCTTTTCTT — within error, 1 ± 0.011
- GAGGGGGGCC — the same, 1.01 ± 0.06
- ATTAAGTTGA — within error, 0.987 ± 0.041
- CAGGGTGAAC — within error, 1.02 ± 0.019
- ACACTGCCGG — within error, 1.04 ± 0.026
- ATGTGTATTT — within error, 1.03 ± 0.023
- AGGGGCTATA — lower, 0.9703 ± 0.0061
- AATGGGGGGT — within error, 1.02 ± 0.053
- GGGCGCCTGC — within error, 0.9942 ± 0.0065
- TGGGCGTCGG — within error, 0.999 ± 0.032
- AAATGATAGC — within error, 1.016 ± 0.0037
- GCTCGACAAT — within error, 1.15 ± 0.14
- AGAACGCGTA — within error, 1.03 ± 0.013
- GGAGGACGGG — within error, 1 ± 0.027
- ATATCTTTTG — within error, 0.9904 ± 0.0088
- TGAGTTTTTA — within error, 0.9956 ± 0.0072
- AGTCGGGTTC — within error, 0.973 ± 0.032
- TCAGATTAGT — lower, 0.968 ± 0.016
- GTGTTGTTGT — within error, 0.998 ± 0.016
- TGGGATCGCT — within error, 1.038 ± 0.0056
- CAACCTGAAC — higher, 2.39 ± 0.2
- CTCTTATAGT — within error, 0.969 ± 0.019
- AATGATCGAC — within error, 0.975 ± 0.012
- ATTTGGGGGA — within error, 0.999 ± 0.029
- GCGTGACGGC — within error, 0.981 ± 0.033
- ATATTCGTTG — the same, 1.007 ± 0.0027
- CATTTGAATT — within error, 0.973 ± 0.033
- TCGGGGGGGT — within error, 1.06 ± 0.19
- CGGTTGATCG — lower, 0.918 ± 0.036
- TGAGTATTTT — within error, 0.992 ± 0.025
- TCGAGACAGG — within error, 1 ± 0.027
- AAGTCGCATT — within error, 1.03 ± 0.014
- TATTCGATTT — within error, 1.032 ± 0.0016
- TTGATATCGG — within error, 0.979 ± 0.023
- GGGCTAGGGG — within error, 0.994 ± 0.029
- GGTCCTTTGA — within error, 1 ± 0.029
- GAGGGGCTAA — lower, 0.9516 ± 0.0088
- CCGCGGCTTG — higher, 1.12 ± 0.053
- GGGGGATCGT — within error, 1.02 ± 0.035
- ACGTAGTAAC — within error, 1.03 ± 0.022
- TACTTATCCT — within error, 1.05 ± 0.042
- GCGGTAGCAT — within error, 1.02 ± 0.012
- GGGCCTGAGG — within error, 0.969 ± 0.028
- GATTCCAAAA — within error, 0.975 ± 0.011
- CTGATTGAGT — lower, 0.9763 ± 0.0063
- GAAAGAAACT — within error, 1.63 ± 0.98
- AACCTTTTCA — higher, 1.067 ± 0.0026
- TTCGGTCACC — the same, 1.014 ± 0.0054
- GCAAAAGTTT — within error, 0.99 ± 0.012
- TACTAGAACT — within error, 1.03 ± 0.035
- AGTACTGCGA — within error, 1.05 ± 0.035
